Tested on: T-cells
Assay: Removal of microRNA binding sites from an RDE: expression from constructs, GFP in T-cells
Assay type: cell-based
Conditions: MIR186 micro-RNA sites removed from the 3′-UTR of IL-2
Description: The AU-rich element from the 3′-UTR of IL-2 has mir-181 and mir 186 microRNA binding sites. Different combinations of the microRNA sites were removed from the 3′-UTR of IL-2. When the MIR186 micro-RNA sites were removed from the 3′-UTR of IL-2 the dynamic range of expression from constructs with this UTR increased 50 fold. The modified IL-2, 3′-UTR replaces CTT in the sequence with GAA and is shown below (the new GAA is underlined in the sequence):
Different combinations of the micro-RNA sites were removed from the 3′UTR of IFNg and tested for increased expression. When the mir125 micro-RNA sites were removed from the 3′-UTR of IFN-γ the expression rate from constructs with this UTR is increased.
Expression of GFP in T-cells, transfected with the RDE-GFP plus the microRNA sites, is compared to expression of GFP in T-cells with the RDE-GFP in which the microRNA sites have been removed, following activation with CD3/CD28 beads for 24 hours. The removal of the microRNA sites increased expression of the GFP by a factor of between 2-5 after 24 hours, relative to the cells with microRNA sites.

B1: modified IL-2, 3′-UTR: IL-2 3′-UTR with MIR186 micro-RNA sites removed, CTT replaced with GAA (SEQ ID NO: 22) (nucleic acid, listed as Homo sapiens)
DNA: TAATTAAGTGCTTCCCACTTAAAACATATCAGGCCTTCTATTTATTTAAATATTTAAATTTTATATTTATTGTTGAATGTATGGTTTGCTACCTATTGTAACTATTATTCTTAATCTTAAAACTATAAATATGGATCTTTTATGATTGAATTTGTAAGCCCTAGGGGCTCTAAAATGGTTTCACTTATTTATCCCAAAATATTTATTATTATGTTGAATGTTAAATATAGTATCTATGTAGATTGGTTAGTAAAACTATTTAATAAATTTGATAAATATAAA
- increase of dynamic range of expression: 50 fold

From patent publication US11311577B2, “Coordinating gene expression using RNA destabilizing elements” (Chimera Bioengineering, Inc., priority 2018, dated 2022)
